According to US20090324601A1 (published 2009):

Key:
[1] = molecular target: T1, PDGFR-alpha on human osteosarcoma MG-63 cells (human, UniProt P16234 24-1089); assay: cell-based or functional assay
[2] = molecular target: T2, murine PDGFRa on NIH3T3 cells (murine, UniProt P26618 25-1089); assay: FACS on NIH3T3 cells, 10 ug/ml antibody, goat anti-human IgG Cy5
T2 construct: whole, on cells; also called mouse PDGFR-alpha

[3] = molecular target: T1, PDGFR-alpha on human osteosarcoma MG-63 …; assay: cell-based or functional assay; remark: listed apart in the source
[4] = molecular target: T3, Recombinant human sPDGFR-alpha (R&D catalog# 322-PR/CF) (human, UniProt P16234 24-528); assay: soluble PDGFRa binding ELISA, plate coated with recombinant human PDGFR-alpha
T3 construct: extracellular domain; Bought reagent; also called soluble PDGFRa; recombinant soluble PDGFR-alpha extracellular domain

[5] = molecular target: T3, Recombinant human sPDGFR-alpha (R&D …); assay: Biacore T100 SPR, 22 C, mAb immobilised on CM5, sPDGFR-alpha injected, 1:1 fit
[6] = molecular target: PDGFR-beta (UniProt P09619 33-530, limits assumed); assay: method not described
[7] = molecular target: FLT3 (UniProt P36888 27-541, limits assumed); assay: method not described
[8] = molecular target: c-kit (UniProt P10721 26-520, limits assumed); assay: method not described
[9] = molecular target: CSF-1R (UniProt P07333 20-512, limits assumed); assay: method not described
[10] = molecular target: T4, Mouse PDGFRa on NIH3T3 cells (mouse, UniProt P26618 25-1089); assay: FACS on NIH3T3 cells, 10 ug/ml antibody
T4 construct: whole, on cells; also called endogenous PDGFRa of NIH3T3 murine fibroblasts

[11] = molecular target: T2, murine PDGFRa on NIH3T3 cells; assay: FACS on NIH3T3 cells, goat anti-human IgG Cy5
[12] = molecular target: T1, PDGFR-alpha on human osteosarcoma MG-63 …; assay: FACS titration on MG-63 cells, 4 C, Cy5 goat anti-human detection

Chain of c-kit (P10721 26-520 limits assumed): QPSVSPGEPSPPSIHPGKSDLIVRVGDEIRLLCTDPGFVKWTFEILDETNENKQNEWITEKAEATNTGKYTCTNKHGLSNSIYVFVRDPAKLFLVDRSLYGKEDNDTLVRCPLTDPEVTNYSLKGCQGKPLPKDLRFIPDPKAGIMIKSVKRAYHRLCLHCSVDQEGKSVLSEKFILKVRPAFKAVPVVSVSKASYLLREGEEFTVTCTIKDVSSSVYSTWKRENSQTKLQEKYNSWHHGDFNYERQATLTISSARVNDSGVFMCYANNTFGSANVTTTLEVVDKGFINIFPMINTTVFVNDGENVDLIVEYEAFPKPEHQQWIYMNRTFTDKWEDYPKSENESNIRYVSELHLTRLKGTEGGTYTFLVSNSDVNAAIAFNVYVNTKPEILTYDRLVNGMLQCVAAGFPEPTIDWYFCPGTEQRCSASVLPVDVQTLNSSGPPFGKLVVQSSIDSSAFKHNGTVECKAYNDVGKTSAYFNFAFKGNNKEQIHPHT
Chain of CSF-1R (P07333 20-512 limits assumed): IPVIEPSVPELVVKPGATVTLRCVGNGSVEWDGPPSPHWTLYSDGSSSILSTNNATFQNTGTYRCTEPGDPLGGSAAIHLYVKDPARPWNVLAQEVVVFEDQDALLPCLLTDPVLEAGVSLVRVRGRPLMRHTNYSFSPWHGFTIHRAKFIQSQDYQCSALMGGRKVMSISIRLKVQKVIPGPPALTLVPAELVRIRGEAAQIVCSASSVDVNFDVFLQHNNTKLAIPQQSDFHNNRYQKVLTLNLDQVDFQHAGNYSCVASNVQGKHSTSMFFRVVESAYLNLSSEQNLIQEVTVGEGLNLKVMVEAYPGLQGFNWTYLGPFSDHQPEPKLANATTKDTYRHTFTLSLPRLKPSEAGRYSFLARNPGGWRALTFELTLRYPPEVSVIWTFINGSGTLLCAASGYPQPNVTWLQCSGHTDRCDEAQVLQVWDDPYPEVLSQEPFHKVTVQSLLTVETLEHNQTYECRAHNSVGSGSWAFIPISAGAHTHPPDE
T4 sequence (P26618 25-1089): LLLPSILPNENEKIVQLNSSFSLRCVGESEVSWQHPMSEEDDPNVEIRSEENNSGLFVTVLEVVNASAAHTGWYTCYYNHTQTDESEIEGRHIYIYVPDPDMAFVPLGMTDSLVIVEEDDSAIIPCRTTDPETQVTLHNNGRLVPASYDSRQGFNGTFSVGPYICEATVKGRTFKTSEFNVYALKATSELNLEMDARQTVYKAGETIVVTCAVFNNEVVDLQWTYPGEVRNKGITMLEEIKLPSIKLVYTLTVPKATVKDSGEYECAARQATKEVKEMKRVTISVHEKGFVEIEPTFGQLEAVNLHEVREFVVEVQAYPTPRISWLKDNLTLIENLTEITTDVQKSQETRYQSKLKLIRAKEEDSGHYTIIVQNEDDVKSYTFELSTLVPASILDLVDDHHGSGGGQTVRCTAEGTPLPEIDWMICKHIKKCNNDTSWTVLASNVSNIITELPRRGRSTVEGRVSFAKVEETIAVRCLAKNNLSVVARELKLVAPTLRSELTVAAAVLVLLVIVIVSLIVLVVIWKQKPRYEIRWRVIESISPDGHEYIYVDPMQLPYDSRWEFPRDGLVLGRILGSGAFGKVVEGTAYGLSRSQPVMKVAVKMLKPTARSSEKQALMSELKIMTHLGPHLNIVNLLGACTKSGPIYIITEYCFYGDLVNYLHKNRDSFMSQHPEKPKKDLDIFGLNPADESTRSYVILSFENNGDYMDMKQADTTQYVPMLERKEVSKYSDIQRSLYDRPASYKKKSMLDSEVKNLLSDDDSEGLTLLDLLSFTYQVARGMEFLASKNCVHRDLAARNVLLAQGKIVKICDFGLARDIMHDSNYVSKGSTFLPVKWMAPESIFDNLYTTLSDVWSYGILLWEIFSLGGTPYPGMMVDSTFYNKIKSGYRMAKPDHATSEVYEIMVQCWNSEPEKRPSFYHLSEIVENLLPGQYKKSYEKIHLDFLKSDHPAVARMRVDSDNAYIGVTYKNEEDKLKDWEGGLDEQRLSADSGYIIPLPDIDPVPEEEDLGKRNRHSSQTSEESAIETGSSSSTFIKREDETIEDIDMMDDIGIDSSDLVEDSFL
T2 sequence (P26618 25-1089): as above
T1 sequence (P16234 24-1089): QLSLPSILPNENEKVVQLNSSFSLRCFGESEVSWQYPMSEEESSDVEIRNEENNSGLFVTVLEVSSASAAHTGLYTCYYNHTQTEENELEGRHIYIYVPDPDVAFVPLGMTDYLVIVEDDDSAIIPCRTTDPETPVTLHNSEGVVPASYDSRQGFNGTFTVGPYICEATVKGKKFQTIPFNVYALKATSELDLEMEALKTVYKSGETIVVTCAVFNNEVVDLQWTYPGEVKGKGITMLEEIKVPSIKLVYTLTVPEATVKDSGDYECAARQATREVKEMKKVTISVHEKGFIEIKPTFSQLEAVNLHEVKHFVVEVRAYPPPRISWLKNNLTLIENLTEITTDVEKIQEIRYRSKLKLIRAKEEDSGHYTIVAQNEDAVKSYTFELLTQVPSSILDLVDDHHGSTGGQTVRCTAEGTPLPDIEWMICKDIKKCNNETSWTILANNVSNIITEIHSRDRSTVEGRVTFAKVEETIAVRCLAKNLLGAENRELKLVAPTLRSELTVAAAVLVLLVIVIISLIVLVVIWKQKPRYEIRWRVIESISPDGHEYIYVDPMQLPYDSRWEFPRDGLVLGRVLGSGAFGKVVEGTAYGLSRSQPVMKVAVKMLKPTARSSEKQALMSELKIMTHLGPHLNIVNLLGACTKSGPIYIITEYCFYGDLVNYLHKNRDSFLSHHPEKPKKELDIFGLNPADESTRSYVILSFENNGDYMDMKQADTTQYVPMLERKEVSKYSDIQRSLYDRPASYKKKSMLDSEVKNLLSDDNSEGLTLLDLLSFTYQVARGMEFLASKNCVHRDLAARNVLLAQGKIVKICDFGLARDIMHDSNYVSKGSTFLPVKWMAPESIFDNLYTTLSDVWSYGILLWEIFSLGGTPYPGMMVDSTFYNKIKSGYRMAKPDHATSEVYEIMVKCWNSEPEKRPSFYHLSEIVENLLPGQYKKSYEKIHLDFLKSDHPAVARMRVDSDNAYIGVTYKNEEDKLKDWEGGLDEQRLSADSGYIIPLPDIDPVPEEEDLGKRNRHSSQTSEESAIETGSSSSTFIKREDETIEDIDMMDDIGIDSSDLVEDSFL
T3 sequence (P16234 24-528): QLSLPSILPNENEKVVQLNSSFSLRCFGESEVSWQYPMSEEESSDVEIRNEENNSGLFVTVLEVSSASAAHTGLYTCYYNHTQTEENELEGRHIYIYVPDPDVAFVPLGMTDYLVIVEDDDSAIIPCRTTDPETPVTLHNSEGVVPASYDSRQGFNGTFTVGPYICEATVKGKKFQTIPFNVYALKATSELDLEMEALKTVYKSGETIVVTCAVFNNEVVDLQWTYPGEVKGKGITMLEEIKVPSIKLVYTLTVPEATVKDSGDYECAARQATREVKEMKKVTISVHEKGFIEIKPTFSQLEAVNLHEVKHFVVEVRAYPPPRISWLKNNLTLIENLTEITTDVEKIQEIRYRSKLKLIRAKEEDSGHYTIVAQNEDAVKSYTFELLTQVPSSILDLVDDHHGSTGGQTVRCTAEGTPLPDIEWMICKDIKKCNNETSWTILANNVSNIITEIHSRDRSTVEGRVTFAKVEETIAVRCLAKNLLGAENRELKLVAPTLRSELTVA
Chain of PDGFR-beta (P09619 33-530 limits assumed): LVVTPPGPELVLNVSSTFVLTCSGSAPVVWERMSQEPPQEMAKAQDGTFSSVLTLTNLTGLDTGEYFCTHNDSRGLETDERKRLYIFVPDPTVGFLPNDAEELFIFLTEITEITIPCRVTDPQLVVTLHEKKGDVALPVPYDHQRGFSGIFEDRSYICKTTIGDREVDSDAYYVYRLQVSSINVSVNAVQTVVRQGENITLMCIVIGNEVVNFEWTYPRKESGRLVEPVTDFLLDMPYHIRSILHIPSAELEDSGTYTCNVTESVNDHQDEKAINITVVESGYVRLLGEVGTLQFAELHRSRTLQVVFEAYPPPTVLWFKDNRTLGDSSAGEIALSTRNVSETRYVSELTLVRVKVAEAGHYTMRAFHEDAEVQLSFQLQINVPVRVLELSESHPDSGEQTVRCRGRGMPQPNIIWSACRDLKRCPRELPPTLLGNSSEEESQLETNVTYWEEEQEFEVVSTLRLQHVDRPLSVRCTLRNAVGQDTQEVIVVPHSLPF

Row | Binder | Proliferation Assay: IC50 ng/ml (1-6-06) [1] [ng/mL] | Proliferation Assay: IC50 ng/ml (1-23-06) [1] [ng/mL] | pTyr Assay: % Inhibition @ 2 µg/ml [1] [%] | binding result [2] | PTYR Assay IC50 [3] [mg/L] | IC50 [4] [mg/L] | Kd [5] [nM] | koff [5] [s⁻¹] | kon [5] [M⁻¹ s⁻¹] | binding result [6] | binding result [7] | binding result [8] | binding result [9] | binding result [10] | Proliferation Assay: IC50 (1-6-06) [1] [nM] | Proliferation Assay: IC50 (1-23-06) [1] [nM] | binding result [11] | Kd [12] [nM]
1 | 2.1623.2 (antibody, V domains shown) VH: QVQLVESGGGLVKPGGSLRLSCAASGFTFSDYYMNWIRQAPGKGLEWVSFISSSGSTIYYADSVKGRFTISRDNAKNSLYLQMNSLRAEDTAVYYCARDGHIAARGMDVWGQGTTVTVSS VL: DIQMTQSPSSLSASVGDRVTITCRASQSFSRYINWYQQKPGKAPKLLIYAASSLQGGVPSRFSGSGSGTDFTLAISSLQPEDFATYYCQQTYSTPPITFGQGTRLEIK | 755 | 982 | 97 | binds |  |  |  |  |  |  |  |  |  |  |  |  |  | 
2 | 2.449.1 variant A (antibody, V domains shown, also called 2.449.1.3 Variant A; 2.449.1.3 variant A) VH: QVQLVESGGGLVKPGGSLRLSCAASGFTFSDYYMNWIRQAPGKGLEWVSYISSSGSIIYYADSVKGRFTISRDNAKNSLYLQMNSLRAEDTAVYYCAREGRIAARGMDVWGQGTTVTVSS VL: DIQMTQSPSSLSASVGDRVSITCRPSQSFSRYINWYQQKPGKAPKLLIYAASSLVGGVPSRFSGSGSGTDFTLTISSLQPEDFATYYCQQTYSNPPITFGQGTRLEIK |  |  |  |  | 0.031 | 0.045 | 0.0086 | 3.8e-06 | 440000 |  |  |  |  |  |  |  |  | 
3 | 2.1853.3 (antibody, V domains shown) VH: QVQLVESGGGLVKPGGSLRLSCAASGFTFSDYYMNWIRQAPGKGLEWVSYISSSGSIIYYADSVKGRFTISRDNAKNSLYLQMNSLRAEDTAVYYCARDGRIVARGMDVWGQGTTVTVSS VL: DIQMTQSPSSLCASVGDRVTITCRASRSITRYLNWYQQKPGKAPKLLIYGASSLQSGVPSRFSGSGSGTDFTLTISSLQPEDFATYYCQQSYSTPPITFGQGTRLEIK | 1120 | 2680 | 98 | binds |  |  |  |  |  |  |  |  |  |  |  |  |  | 
4 | 2.449.1.3 (antibody, V domains shown, identified by its values; also called mAb 2.449.1.3) VH: QVQLVESGGGLVKPGGSLRLSCAASGFTFSDYYMNWIRQAPGKGLEWVSYISSSGSIIYYADSVKGRFTISRDNAKNSLYLQMNSLRAEDTAVYYCAREGRIAARGMDVWGQGTTVTVSS VL: DIQMTQSPSSLSASVGDRVSITCRPSQSFSRYINWYQQKPGKAPKLLIHAASSLVGGVPSRFSGSGSGTDFTLTISSLQPEDFATYYCQQTYSNPPITFGQGTRLEMK | 179 | 237 | 99 |  | 0.021 | 0.044 | 0.14 | 6.16e-05 | 440000 |  |  |  |  |  | 1.2 | 1.57 | no binding (tested: 10 ug/ml) | 0.052
5 | 2.175.3 variant A (antibody, V domains shown) VH: QVQLVESGGGLVKPGGSLRLSCAASGFTFSDYYMHWIRQAPGKGLEWVSYISRSGSLIYYVDSVKGRFTISRDNAKNSLYLQMNSLRAEDTAVYYCARGGPYSGSPFDYWGQGTLVTVSS VL: DIQMTQSPSSLSASVGDRVTITCRPSQRISRYLNWYQQKPGKAPKLLIYAASSLPSGVPSRFSGSGSGTDFTLTISSLQPEDFATYYCQQSYSTPPWTFGQGTKVEIK |  |  |  |  | 0.029 | 0.046 | 0.0071 | 2.53e-06 | 355000 |  |  |  |  |  |  |  |  | 
6 | 2.175.3 (antibody, V domains shown, identified by its values; also called mAb 2.175.3) VH: QVHLVESGGGLVKPGGSLRLSCAASGFTFSDYYMHWIRQAPGKGLEWVSYISRSGSLIYYVDSVKGRFTISRDNAKNSLNLQMNSLRAEDTAVYYCARGGPYSGSPFDYWGQGTLVTVSS VL: DIQMTQSPSSLSASVGDRVTITCRPSQRISRYLNWYQQKPGKAPKFLIYAASSLPSGVPSRFSGSGSGTDFTLTISTLQPEDFATYYCQQSYSTPPWTFGQGTKVEIK | 67.3 | 56.1 | 100 | binds | 0.028 | 0.038 | 0.05 | 2.59e-05 | 516000 |  |  |  |  |  | 0.45 | 0.37 |  | 0.328

Next, values leading:

Row | Proliferation Assay: IC50 ng/ml (1-6-06) [1] [ng/mL] | Proliferation Assay: IC50 ng/ml (1-23-06) [1] [ng/mL] | pTyr Assay: % Inhibition @ 2 µg/ml [1] [%] | binding result [2] | PTYR Assay IC50 [3] [mg/L] | IC50 [4] [mg/L] | Kd [5] [nM] | koff [5] [s⁻¹] | kon [5] [M⁻¹ s⁻¹] | binding result [6] | binding result [7] | binding result [8] | binding result [9] | binding result [10] | Proliferation Assay: IC50 (1-6-06) [1] [nM] | Proliferation Assay: IC50 (1-23-06) [1] [nM] | binding result [11] | Kd [12] [nM] | Binder
7 |  |  |  |  |  |  |  |  |  | no binding | no binding | no binding | no binding | binds |  |  |  |  | 2.1623.2 (antibody, V domains shown, Variable regions only) VH: QVQLVESGGGLVKPGGSLRLSCAASGFTFSDYYMNWIRQAPGKGLEWVSFISSSGSTIYYADSVKGRFTISRDNAKNSLYLQMNSLRAEDTAVYYCARDGHIAARGMDVWGQGTTVTVSS VL: DIQMTQSPSSLSASVGDRVTITCRASQSFSRYINWYQQKPGKAPKLLIYAASSLQGGVPSRFSGSGSGTDFTLAISSLQPEDFATYYCQQTYSTPPITFGQGTRLEIK
8 |  |  |  |  |  |  |  |  |  | no binding | no binding | no binding | no binding | binds |  |  |  |  | 2.1853.3 (antibody, V domains shown, Variable regions only) VH: QVQLVESGGGLVKPGGSLRLSCAASGFTFSDYYMNWIRQAPGKGLEWVSYISSSGSIIYYADSVKGRFTISRDNAKNSLYLQMNSLRAEDTAVYYCARDGRIVARGMDVWGQGTTVTVSS VL: DIQMTQSPSSLCASVGDRVTITCRASRSITRYLNWYQQKPGKAPKLLIYGASSLQSGVPSRFSGSGSGTDFTLTISSLQPEDFATYYCQQSYSTPPITFGQGTRLEIK
9 |  |  |  |  |  |  |  |  |  | no binding | no binding | no binding | no binding | binds |  |  |  |  | 2.175.3 (antibody, V domains shown, Variable regions only) VH: QVHLVESGGGLVKPGGSLRLSCAASGFTFSDYYMHWIRQAPGKGLEWVSYISRSGSLIYYVDSVKGRFTISRDNAKNSLNLQMNSLRAEDTAVYYCARGGPYSGSPFDYWGQGTLVTVSS VL: DIQMTQSPSSLSASVGDRVTITCRPSQRISRYLNWYQQKPGKAPKFLIYAASSLPSGVPSRFSGSGSGTDFTLTISTLQPEDFATYYCQQSYSTPPWTFGQGTKVEIK
